The text below walks through data of US20240287172A1 (SCIRHOM, published 2024).

The target in one assay is T1, hiR2-FL-D528I-T7 (human, UniProt Q6PJF5 1-856).
T1 sequence: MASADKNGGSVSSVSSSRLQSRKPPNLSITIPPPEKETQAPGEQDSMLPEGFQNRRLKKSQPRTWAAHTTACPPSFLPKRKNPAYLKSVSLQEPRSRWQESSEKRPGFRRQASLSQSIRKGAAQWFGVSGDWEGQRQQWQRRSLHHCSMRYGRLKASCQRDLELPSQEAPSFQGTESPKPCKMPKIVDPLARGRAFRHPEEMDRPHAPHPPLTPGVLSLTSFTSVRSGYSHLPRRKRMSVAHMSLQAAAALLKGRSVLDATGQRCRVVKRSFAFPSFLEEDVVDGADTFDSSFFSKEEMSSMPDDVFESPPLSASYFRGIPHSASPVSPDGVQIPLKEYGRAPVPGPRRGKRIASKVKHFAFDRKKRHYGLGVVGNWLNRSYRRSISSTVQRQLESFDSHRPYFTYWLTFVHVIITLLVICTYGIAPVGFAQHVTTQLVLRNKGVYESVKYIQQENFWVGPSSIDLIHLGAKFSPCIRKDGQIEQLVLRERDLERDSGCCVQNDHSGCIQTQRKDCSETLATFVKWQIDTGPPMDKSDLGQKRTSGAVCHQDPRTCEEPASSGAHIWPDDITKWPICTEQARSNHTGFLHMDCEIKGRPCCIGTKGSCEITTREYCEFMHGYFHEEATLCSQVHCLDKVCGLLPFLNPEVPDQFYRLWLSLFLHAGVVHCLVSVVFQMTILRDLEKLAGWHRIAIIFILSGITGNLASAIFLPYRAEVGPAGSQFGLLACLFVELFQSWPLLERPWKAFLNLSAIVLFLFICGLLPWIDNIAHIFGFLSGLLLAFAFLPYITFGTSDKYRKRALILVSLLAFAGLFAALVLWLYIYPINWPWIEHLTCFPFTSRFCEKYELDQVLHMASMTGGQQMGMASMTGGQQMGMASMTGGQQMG
Briefly: FACS, MEF-DKO cells, 3 µg/ml.

A further assay concerns the target T2, hiR2-FL-T519A-T7 (human, UniProt Q6PJF5 1-856).
T2 sequence: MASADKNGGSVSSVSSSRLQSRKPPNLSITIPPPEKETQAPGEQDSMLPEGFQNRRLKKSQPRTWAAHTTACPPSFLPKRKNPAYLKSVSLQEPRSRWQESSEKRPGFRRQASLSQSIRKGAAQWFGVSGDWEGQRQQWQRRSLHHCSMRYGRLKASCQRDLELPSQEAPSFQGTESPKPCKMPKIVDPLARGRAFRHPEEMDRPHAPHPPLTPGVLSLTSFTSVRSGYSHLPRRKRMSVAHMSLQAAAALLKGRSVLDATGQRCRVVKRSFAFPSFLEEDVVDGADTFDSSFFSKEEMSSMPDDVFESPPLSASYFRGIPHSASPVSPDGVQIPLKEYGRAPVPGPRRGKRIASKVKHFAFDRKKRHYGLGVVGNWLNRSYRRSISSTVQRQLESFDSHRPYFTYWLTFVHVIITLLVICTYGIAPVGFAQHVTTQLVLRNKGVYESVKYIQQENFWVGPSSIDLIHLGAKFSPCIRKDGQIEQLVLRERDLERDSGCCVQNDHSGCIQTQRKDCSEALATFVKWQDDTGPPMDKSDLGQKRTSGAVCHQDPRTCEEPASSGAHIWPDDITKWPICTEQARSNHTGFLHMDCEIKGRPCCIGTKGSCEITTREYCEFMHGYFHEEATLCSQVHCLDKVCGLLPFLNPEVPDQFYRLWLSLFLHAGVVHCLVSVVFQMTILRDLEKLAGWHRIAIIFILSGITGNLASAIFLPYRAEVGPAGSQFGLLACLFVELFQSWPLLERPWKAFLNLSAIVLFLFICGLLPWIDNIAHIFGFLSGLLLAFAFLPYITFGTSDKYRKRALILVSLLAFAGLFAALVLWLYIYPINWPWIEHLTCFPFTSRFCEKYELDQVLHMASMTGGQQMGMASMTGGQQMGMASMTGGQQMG
The assay is described as follows: FACS on MEF-DKO cells expressing the variant, 3 µg/ml antibody. Put shortly:
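Cells stained with purified antibody at 3 μg/ml for 1 h on ice, then with PE-conjugated goat anti-mouse IgG F(ab′)2 (1:100) for 1 h on ice in the dark. Binding read by flow cytometry; buffer-only staining as control.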

B1: antibody 48 (antibody, V domains shown)
VH: QVQLQQSGTELVRPGTSVKVSCKASGYAFTNYLIEWVKQRPGQGLEWIGVINPGSGFTKYNEKFKGKATLTADKSSSTVYMHLSSLTSEDSAVYFCARGLYRAMDYWGQGTSVTVSS
VL: DIQMTQSPASQSASLGESVTITCLASQTIATWLAWYQQKPGKSPQLLIYGATTLADGVPSRFSGGGSGTKFSFKISSLQAEDFVSYYCQQLYSTPYTFGGGTKLEIK
notes: mouse IgG, kappa light chain; also called clone #48; purified antibody 48
With B1, the “loss of binding vs wild type” value is no less than 30% with hiR2-FL-D528I-T7 and no less than 60% with hiR2-FL-T519A-T7.

B2: antibody 50 (antibody, V domains shown)
VH: QVQLQQSGAELVRPGASVKVSCKASGYAFSNYLIEWVKQRPGQGLEWIGVINPGSGFTKYNEKFKGKATLTADKSSSTAYMQLSSLTSEDSAVYFCARGLYRAMDYWGQGTSVTVSS
VL: DIQMTQSPASQSASLGESVTITCLASQTIGTWLAWYQQKPGKSPQLLIYAAASLADGVPSRFSGGGSGTKFSFKISSLQAEDFVNYYCQQIYSTPYTFGGGTKLEIK
notes: mouse IgG, kappa light chain; also called clone #50; purified antibody 50
In the case of B2, the results for the “loss of binding vs wild type” value in the assay with hiR2-FL-D528I-T7 and in the assay with hiR2-FL-T519A-T7 were no less than 30% and no less than 60%, respectively.
